Measurements published in the domain aggregation screens of Martell et al. (2025).

assay: soluble fraction after stress (log2 fold change); higher = more stays soluble; pooled small domains, quantitative proteomics; details: stress: pH 4
Method in brief: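 Aggregation propensity is read out as the fold change in how much of each domain remains soluble after acid stress. The custom small-domain libraries were pooled, held at pH 4 and analysed with high-throughput quantitative proteomics. On the log2 scale used, higher values mean more of the domain stayed soluble.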

Sequence	soluble fraction (log2)
HMDQPLIEPLSERELEVLSLIAAGYSNAEIAERLVIAVGTVKRHINNLYGKLGAGSRTQALAIAREIGLM	-0.661
HMDQTKYDAIITEAKKLTAEGQYKESEEKLATIPVSDLGKPHYSIVKETVEKLNNQNNEGLKRQEEVAVE	-0.0626
HMDQVLHQLVEVLRRSEIRISPAETLDAFKVLRNVGIDNKSLLREALALTLAKSIHEKIIFYETFDEFFT	-1.08
HMDRADIDAVDAEWVRATMERLGLRAKHIESHTGISKSTLSILLNGHRPLTRWHKIAFYYLFKHIEF	-1.82
HMDRDQNVEEGQRSLKSEMGRFGLLIANMDDLAERVNYGNAEDMYAAIGAGDLRLMQVVHAAEEMLG	-0.61
HMDRENNITAGREILEKELSRLALNMKMVNLQDYAARFNVKHSDDILAGIGAGDIRPAHIVNAIAEKLT	-0.304
HMDREQLELYVGEVRVLQVGELRRIAIGNGKVLQASALDRGQLLLIPEAPGQSVLYLWTRDGTERHLSISV	-0.81
HMDRESFIKLGRELARSAFAHVGQKSTEKALETAADVLRLKDPNEVLARLGSAELTGRQVVQAIYPELI	0.0233
HMDRFRYYITEDSVQRGTYPYVDETTLKRFTSQLHKYEQGMISAYGYLEYSKPLTAEQIKDYTLMPSP	-0.485
HMDRFVLQLSKRYYDSSIEGVRKALAAFPVKTELLDQDRGGRPFYHENGKENEPVFRIMFHPEEGM	-0.116
HMDRIISTPMPGRVVKIPVTEGEPVAKGATVITISAMKMESEYKSPIDGIVKKIHVSEGDNINANQPLIEI	-0.112
HMDRKFFYEDQYQDYLGEELKVSFFDTDNKKTVRGTLSEVTPHGIKINLEQETQEIPFSSIIQANLI	-0.44
HMDRPARDEAQSWLADVLADGPVPTAEIREEAEAAGLAWRTIQRARIALSVEPIRGDGRNAWLWQLPG	0.377
HMDRQIQITVAENEAGQRLDAFLAAKIPDMSRSYIQKLIEDGLILVNGQSTKGKVKTYSGMNIEVYMPE	0.22
HMDRRDEYHQHLLRLLLSGEIRDKDELQRRKVKLSGEYGLAGVPKNSETLALVPPDRLPEVLDILR	-0.289
HMDRSIGDIIAELRDLSAEQVERVLAHQRETGVRFGEAAVALGYASKEDVLFALSQQFHYPYAPEE	-0.946
HMDRSVTAAELRLAAMDLLARREHGSQELEAKLSRRFHKRHYDVELLRSVIEQLTVEGLLSDERFAVS	-1.07
HMDRVTYPVSFNGKVRFQLELDAGMNAKEVETAALGHEKTAAQIEGKTIRKVIVVPGRIINIVV	-0.404
HMDRWTPLVVAVLSRGSHRFGELRAAIGGITPKVLTDTLRSMERDGLITRDQAPGVPPRVDYALTPLGS	-0.126
HMDSALKDDLNAFVKKLDVESQTLFMRRYFLGESVSSLASRFEMSEDNVGVKLFRIRAKLKKYLTGKGYD	-0.445
HMDSAMMDLVMRVQLALFTKGYDVGIIDGKIGPKTRAQIKRYQSDNRLSSTGTLTTSLLTSLGIQ	0.00457
HMDSATDRVALKELLNTLSARERTIITLRYFSDQTQTQVAKSLGISQVQVSRLENAILQRLRKL	-0.271
HMDSDELEAFRLITSVNGVGPKLGIAILSEFTAEKLTVFIASGDAKALTAASGVGIKLAQRIVLELKDKVG	-0.184
HMDSDFIKIEVLFNERNRLDLKAMMEASGFTDRGQFLSIMADLTGDENWDRNLDRGDIFYLPRSFTI	-1.6
HMDSDIGQQLKILLTVGTFMPSTELKAIAQQFGMKKPTDLKEWVELESDTQRIKGNPTKGYWINEINDL	-0.262
HMDSEEVYQMTKHKMDAAQISVAKRIHINLVLVKLLELHHLGYDLRHYHAQHHAFIKRLNLPEYFRFD	-0.832
HMDSEKVLTNLKEELVLQLSNIEPYGYVPSQYWYSKVQRVQSVQELGKYVDGDLEAFVMKYAEDWESQK	-0.951
